Numbered stars: 1 amine (or outer) side, 2 acyl side, 3 side chain; on linkers, the order of the positions; unused ones are H or OH. Bridge positions count the residues as written; N and C are the ends. Side chains are listed from the residue outwards. Ends that are not written are not given here. * marks the point of attachment. C20 diacid = O=C(O)CCCCCCCCCCCCCCCCCCC(=O)*; γGlu = O=C(O)[C@H](CCC(=O)[*:2])N[*:1]; AEEA = NCCOCCOCC(=O)O
T1: human calcitonin receptor (human, UniProt P30988 25-474)
T1 sequence (looked up): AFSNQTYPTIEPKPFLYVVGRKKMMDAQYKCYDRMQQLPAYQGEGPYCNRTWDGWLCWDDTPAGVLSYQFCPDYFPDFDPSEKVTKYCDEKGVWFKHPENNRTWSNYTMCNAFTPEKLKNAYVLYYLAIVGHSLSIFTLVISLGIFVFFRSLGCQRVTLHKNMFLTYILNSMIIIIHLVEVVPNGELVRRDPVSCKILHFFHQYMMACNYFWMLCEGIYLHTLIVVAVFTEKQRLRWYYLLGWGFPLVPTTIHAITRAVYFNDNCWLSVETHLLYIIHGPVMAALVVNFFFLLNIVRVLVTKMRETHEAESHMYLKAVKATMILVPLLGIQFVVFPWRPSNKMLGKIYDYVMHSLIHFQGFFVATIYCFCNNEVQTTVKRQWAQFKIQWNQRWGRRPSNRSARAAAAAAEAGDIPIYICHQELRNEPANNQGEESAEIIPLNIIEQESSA

T2: human amylin receptor (amylin 3(a) receptor: human calcitonin receptor co-expressed with RAMP-3) (human, UniProt P30988 25-474; O60896 24-148, limits assumed)
T2 sequence (looked up) 1: T1 sequence (looked up)
T2 sequence (looked up) 2: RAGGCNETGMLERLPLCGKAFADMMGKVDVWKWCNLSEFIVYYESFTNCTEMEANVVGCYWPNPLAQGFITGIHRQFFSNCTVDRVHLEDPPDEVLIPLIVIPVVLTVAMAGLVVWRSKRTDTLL

B1: N^ε1-[2-[2-[2-[[(4S)-4-carboxy-4-(19-carboxynonadecanoylamino)butanoyl]amino]ethoxy]ethoxy]acetyl]-[His14,Arg17,Pro21,Pro27,His34]-h-amylin (peptide)
peptide: K([AEEA-γGlu-C20 diacid])CNTATCATQRLAHFLRHSSPNFGAIPSSTNVGHNTY-NH2
modifications: disulfide 2-7; N-terminus assumed
SMILES: CC[C@H](C)[C@H](NC(=O)[C@H](C)NC(=O)CNC(=O)[C@H](Cc1ccccc1)NC(=O)[C@H](CC(N)=O)NC(=O)[C@@H]1CCCN1C(=O)[C@H](CO)NC(=O)[C@H](CO)NC(=O)[C@H](Cc1c[nH]cn1)NC(=O)[C@H](CCCNC(=N)N)NC(=O)[C@H](CC(C)C)NC(=O)[C@H](Cc1ccccc1)NC(=O)[C@H](Cc1c[nH]cn1)NC(=O)[C@H](C)NC(=O)[C@H](CC(C)C)NC(=O)[C@H](CCCNC(=N)N)NC(=O)[C@H](CCC(N)=O)NC(=O)[C@@H](NC(=O)[C@H](C)NC(=O)[C@@H]1CSSC[C@H](NC(=O)[C@@H](N)CCCCNC(=O)COCCOCCNC(=O)CC[C@H](NC(=O)CCCCCCCCCCCCCCCCCCC(=O)O)C(=O)O)C(=O)N[C@@H](CC(N)=O)C(=O)N[C@@H]([C@@H](C)O)C(=O)N[C@@H](C)C(=O)N[C@@H]([C@@H](C)O)C(=O)N1)[C@@H](C)O)C(=O)N1CCC[C@H]1C(=O)N[C@@H](CO)C(=O)N[C@@H](CO)C(=O)N[C@H](C(=O)N[C@@H](CC(N)=O)C(=O)N[C@H](C(=O)NCC(=O)N[C@@H](Cc1c[nH]cn1)C(=O)N[C@@H](CC(N)=O)C(=O)N[C@H](C(=O)N[C@@H](Cc1ccc(O)cc1)C(N)=O)[C@@H](C)O)C(C)C)[C@@H](C)O
notes: also called compound 80
B2: N^ε1-[2-[2-[2-[[(4S)-4-carboxy-4-(19-carboxynonadecanoylamino)butanoyl]amino]ethoxy]ethoxy]acetyl]-[Lys14,Arg17,Pro21,Pro27,Pro31]-h-amylin (peptide)
peptide: K([AEEA-γGlu-C20 diacid])CNTATCATQRLAKFLRHSSPNFGAIPSSTPVGSNTY-NH2
modifications: disulfide 2-7; N-terminus assumed
SMILES: CC[C@H](C)[C@H](NC(=O)[C@H](C)NC(=O)CNC(=O)[C@H](Cc1ccccc1)NC(=O)[C@H](CC(N)=O)NC(=O)[C@@H]1CCCN1C(=O)[C@H](CO)NC(=O)[C@H](CO)NC(=O)[C@H](Cc1c[nH]cn1)NC(=O)[C@H](CCCNC(=N)N)NC(=O)[C@H](CC(C)C)NC(=O)[C@H](Cc1ccccc1)NC(=O)[C@H](CCCCN)NC(=O)[C@H](C)NC(=O)[C@H](CC(C)C)NC(=O)[C@H](CCCNC(=N)N)NC(=O)[C@H](CCC(N)=O)NC(=O)[C@@H](NC(=O)[C@H](C)NC(=O)[C@@H]1CSSC[C@H](NC(=O)[C@@H](N)CCCCNC(=O)COCCOCCNC(=O)CC[C@H](NC(=O)CCCCCCCCCCCCCCCCCCC(=O)O)C(=O)O)C(=O)N[C@@H](CC(N)=O)C(=O)N[C@@H]([C@@H](C)O)C(=O)N[C@@H](C)C(=O)N[C@@H]([C@@H](C)O)C(=O)N1)[C@@H](C)O)C(=O)N1CCC[C@H]1C(=O)N[C@@H](CO)C(=O)N[C@@H](CO)C(=O)N[C@H](C(=O)N1CCC[C@H]1C(=O)N[C@H](C(=O)NCC(=O)N[C@@H](CO)C(=O)N[C@@H](CC(N)=O)C(=O)N[C@H](C(=O)N[C@@H](Cc1ccc(O)cc1)C(N)=O)[C@@H](C)O)C(C)C)[C@@H](C)O
notes: also called compound 74
B3: N^ε1-[2-[2-[2-[[(4S)-4-carboxy-4-(19-carboxynonadecanoylamino)butanoyl]amino]ethoxy]ethoxy]acetyl]-[His14,Arg17,Pro21,Pro27,Pro31]-h-amylin (peptide)
peptide: K([AEEA-γGlu-C20 diacid])CNTATCATQRLAHFLRHSSPNFGAIPSSTPVGSNTY-NH2
modifications: disulfide 2-7; N-terminus assumed
SMILES: CC[C@H](C)[C@H](NC(=O)[C@H](C)NC(=O)CNC(=O)[C@H](Cc1ccccc1)NC(=O)[C@H](CC(N)=O)NC(=O)[C@@H]1CCCN1C(=O)[C@H](CO)NC(=O)[C@H](CO)NC(=O)[C@H](Cc1c[nH]cn1)NC(=O)[C@H](CCCNC(=N)N)NC(=O)[C@H](CC(C)C)NC(=O)[C@H](Cc1ccccc1)NC(=O)[C@H](Cc1c[nH]cn1)NC(=O)[C@H](C)NC(=O)[C@H](CC(C)C)NC(=O)[C@H](CCCNC(=N)N)NC(=O)[C@H](CCC(N)=O)NC(=O)[C@@H](NC(=O)[C@H](C)NC(=O)[C@@H]1CSSC[C@H](NC(=O)[C@@H](N)CCCCNC(=O)COCCOCCNC(=O)CC[C@H](NC(=O)CCCCCCCCCCCCCCCCCCC(=O)O)C(=O)O)C(=O)N[C@@H](CC(N)=O)C(=O)N[C@@H]([C@@H](C)O)C(=O)N[C@@H](C)C(=O)N[C@@H]([C@@H](C)O)C(=O)N1)[C@@H](C)O)C(=O)N1CCC[C@H]1C(=O)N[C@@H](CO)C(=O)N[C@@H](CO)C(=O)N[C@H](C(=O)N1CCC[C@H]1C(=O)N[C@H](C(=O)NCC(=O)N[C@@H](CO)C(=O)N[C@@H](CC(N)=O)C(=O)N[C@H](C(=O)N[C@@H](Cc1ccc(O)cc1)C(N)=O)[C@@H](C)O)C(C)C)[C@@H](C)O
notes: also called compound 61
B4: N^ε1-[2-[2-[2-[[(4S)-4-carboxy-4-(19-carboxynonadecanoylamino)butanoyl]amino]ethoxy]ethoxy]acetyl]-[Ser14,Arg17,Pro21,Pro27,Pro31]-h-amylin (peptide)
peptide: K([AEEA-γGlu-C20 diacid])CNTATCATQRLASFLRHSSPNFGAIPSSTPVGSNTY-NH2
modifications: disulfide 2-7; N-terminus assumed
SMILES: CC[C@H](C)[C@H](NC(=O)[C@H](C)NC(=O)CNC(=O)[C@H](Cc1ccccc1)NC(=O)[C@H](CC(N)=O)NC(=O)[C@@H]1CCCN1C(=O)[C@H](CO)NC(=O)[C@H](CO)NC(=O)[C@H](Cc1c[nH]cn1)NC(=O)[C@H](CCCNC(=N)N)NC(=O)[C@H](CC(C)C)NC(=O)[C@H](Cc1ccccc1)NC(=O)[C@H](CO)NC(=O)[C@H](C)NC(=O)[C@H](CC(C)C)NC(=O)[C@H](CCCNC(=N)N)NC(=O)[C@H](CCC(N)=O)NC(=O)[C@@H](NC(=O)[C@H](C)NC(=O)[C@@H]1CSSC[C@H](NC(=O)[C@@H](N)CCCCNC(=O)COCCOCCNC(=O)CC[C@H](NC(=O)CCCCCCCCCCCCCCCCCCC(=O)O)C(=O)O)C(=O)N[C@@H](CC(N)=O)C(=O)N[C@@H]([C@@H](C)O)C(=O)N[C@@H](C)C(=O)N[C@@H]([C@@H](C)O)C(=O)N1)[C@@H](C)O)C(=O)N1CCC[C@H]1C(=O)N[C@@H](CO)C(=O)N[C@@H](CO)C(=O)N[C@H](C(=O)N1CCC[C@H]1C(=O)N[C@H](C(=O)NCC(=O)N[C@@H](CO)C(=O)N[C@@H](CC(N)=O)C(=O)N[C@H](C(=O)N[C@@H](Cc1ccc(O)cc1)C(N)=O)[C@@H](C)O)C(C)C)[C@@H](C)O
notes: also called compound 73
B5: N^ε1-[2-[2-[2-[[(4S)-4-carboxy-4-(19-carboxynonadecanoylamino)butanoyl]amino]ethoxy]ethoxy]acetyl]-[His14,Arg17,Pro21,Pro27,Pro34]-h-amylin (peptide)
peptide: K([AEEA-γGlu-C20 diacid])CNTATCATQRLAHFLRHSSPNFGAIPSSTNVGPNTY-NH2
modifications: disulfide 2-7; N-terminus assumed
SMILES: CC[C@H](C)[C@H](NC(=O)[C@H](C)NC(=O)CNC(=O)[C@H](Cc1ccccc1)NC(=O)[C@H](CC(N)=O)NC(=O)[C@@H]1CCCN1C(=O)[C@H](CO)NC(=O)[C@H](CO)NC(=O)[C@H](Cc1c[nH]cn1)NC(=O)[C@H](CCCNC(=N)N)NC(=O)[C@H](CC(C)C)NC(=O)[C@H](Cc1ccccc1)NC(=O)[C@H](Cc1c[nH]cn1)NC(=O)[C@H](C)NC(=O)[C@H](CC(C)C)NC(=O)[C@H](CCCNC(=N)N)NC(=O)[C@H](CCC(N)=O)NC(=O)[C@@H](NC(=O)[C@H](C)NC(=O)[C@@H]1CSSC[C@H](NC(=O)[C@@H](N)CCCCNC(=O)COCCOCCNC(=O)CC[C@H](NC(=O)CCCCCCCCCCCCCCCCCCC(=O)O)C(=O)O)C(=O)N[C@@H](CC(N)=O)C(=O)N[C@@H]([C@@H](C)O)C(=O)N[C@@H](C)C(=O)N[C@@H]([C@@H](C)O)C(=O)N1)[C@@H](C)O)C(=O)N1CCC[C@H]1C(=O)N[C@@H](CO)C(=O)N[C@@H](CO)C(=O)N[C@H](C(=O)N[C@@H](CC(N)=O)C(=O)N[C@H](C(=O)NCC(=O)N1CCC[C@H]1C(=O)N[C@@H](CC(N)=O)C(=O)N[C@H](C(=O)N[C@@H](Cc1ccc(O)cc1)C(N)=O)[C@@H](C)O)C(C)C)[C@@H](C)O
notes: also called compound 68

The binders below were run against T1, human calcitonin receptor (assay: cell-based or functional assay).
B1 was tested, and the “hCTR funct. EC50” value was 2.14 nM. For B2, the “hCTR funct. EC50” value was 37.5 nM. In the case of B3, the “hCTR funct. EC50” value is reported as 0.554 nM. For B4, the “hCTR funct. EC50” value was 0.961 nM. For B5, the “hCTR funct. EC50” value was 0.932 nM.

What follows are binders tested against T2, human amylin receptor (amylin 3(a) …) (assay: cell-based or functional assay).
B1 was tested, and the “hAmylin-R funct. EC50” value was 0.139 nM. For B2, the “hAmylin-R funct. EC50” value was 0.666 nM. In the case of B3, the “hAmylin-R funct. EC50” value is reported as 0.051 nM. With B4 the “hAmylin-R funct. EC50” value was 0.085 nM. In the case of B5, the “hAmylin-R funct. EC50” value is reported as 0.054 nM.
